This is an account of results in US20250340881A1, “PHARMACEUTICAL COMPOSITION FOR TREATING CANCER COMPRISING FOXM1 MUTANT OR FOXM1 SHRNA” (Industry-University Cooperation Foundation Hanyang …, priority 2022, published 2025).

This experiment relates to A549 lung cancer cells. Nature of the experiment: Wound healing assay of A549 cells expressing FoxM1 phosphorylated point mutants. The format is cell-based. Conditions: distance in the control group at 72 h set to 0%. How it is done: To observe the effects of phosphorylation point mutations on the motility of cancer cells, a wound healing assay was performed in lung cancer cells A549 expressing FoxM1 wild type (WT), phosphorylated point mutants S25E, S361E, and S715E, and a simultaneous triple-point mutation EEE protein.
Specifically, cells expressing the gene of FoxM1 point mutant by the lentivirus system were seeded into 6-well plates at 1×10^5 cells/well each. 24 hours after cell seeding, scratches were made at regular intervals using a 200 μl-pipette tip. In addition, A549 cells treated with mock as a negative control (Mock) and 5 ng/ml of TGF-β as a positive control were used. […] In addition, the distance in the control group at 72 h was set to 0%, and the relative distance was represented as a bar graph (FIG. 4G).

B1: S25E: FoxM1 phosphorylated point mutant of the S25 residue, expressed by lentivirus in A549 cells (protein, listed as Homo sapiens)
chain: MKTSPRRPLILKRRRLPLPVQNAPEETSEEEPKRSPAQQESNQAEASKEVAESNSCKFPAGIKIINHPTMPNTQVVAIPNNANIHSIITALTAKGKESGSSGPNKFILISCGGAPTQPPGLRPQTQTSYDAKRTEVTLETLGPKPAARDVNLPRPPGALCEQKRETCDGEAAGCTINNSLSNIQWLRKMSSDGLGSRSIKQEMEEKENCHLEQRQVKVEEPSRPSASWQNSVSERPPYSYMAMIQFAINSTERKRMTLKDIYTWIEDHFPYFKHIAKPGWKNSIRHNLSLHDMFVRETSANGKVSFWTIHPSANRYLTLDQVFKQQQKRPNPELRRNMTIKTELPLGARRKMKPLLPRVSSYLVPIQFPVNQSLVLQPSVKVPLPLAASLMSSELARHSKRVRIAPKVLLAEEGIAPLSSAGPGKEEKLLFGEGFSPLLPVQTIKEEEIQPGEEMPHLARPIKVESPPLEEWPSPAPSFKEESSHSWEDSSQSPTPRPKKSYSGLRSPTRCVSEMLVIQHRERRERSRSRRKQHLLPPCVDEPELLFSEGPSTSRWAAELPFPADSSDPASQLSYSQEVGGPFKTPIKETLPISSTPSKSVLPRTPESWRLTPPAKVGGLDFSPVQTSQGASDPLPDPLGLMDLSTTPLQSAPPLESPQRLLSSEPLDLISVPFGNSSPSDIDVPKPGSPEPQVSGLAANRSLTEGLVLDTMNDSLSKILLDISFPGLDEDPLGPDNINWSQFIPELQ
Take B1: the “relative healing distance (motility) at 72 h” value is recorded as 43%.
